Assay results from patent JP2012100585A (dated 2012).
Blank lines part the entries; values can stand above or below the binder they belong to.

Assays:
BSA [1] = molecular target: T1, BSA (UniProt P02769 25-607); test: ELISA, BSA on the plate, anti-V5 detection
T1 construct: Negative control antigen; also called BSA(陰性対照、シグマ社)

[2] = molecular target: T2, 組換えヒトLOX−1タンパク質(61−273aa) (human, UniProt P78380 61-273); test: ELISA on LOX-1 (61-273), anti-V5 detection; 4-parameter logistic fit
BSA [3] = molecular target: T1, BSA; test: ELISA, BSA on the plate
[4] = molecular target: T2, 組換えヒトLOX−1タンパク質(61−273aa); test: ELISA, LOX-1 (61-273) on the plate, HRP anti-mouse IgG detection

T1 sequence (P02769 25-607 limits assumed): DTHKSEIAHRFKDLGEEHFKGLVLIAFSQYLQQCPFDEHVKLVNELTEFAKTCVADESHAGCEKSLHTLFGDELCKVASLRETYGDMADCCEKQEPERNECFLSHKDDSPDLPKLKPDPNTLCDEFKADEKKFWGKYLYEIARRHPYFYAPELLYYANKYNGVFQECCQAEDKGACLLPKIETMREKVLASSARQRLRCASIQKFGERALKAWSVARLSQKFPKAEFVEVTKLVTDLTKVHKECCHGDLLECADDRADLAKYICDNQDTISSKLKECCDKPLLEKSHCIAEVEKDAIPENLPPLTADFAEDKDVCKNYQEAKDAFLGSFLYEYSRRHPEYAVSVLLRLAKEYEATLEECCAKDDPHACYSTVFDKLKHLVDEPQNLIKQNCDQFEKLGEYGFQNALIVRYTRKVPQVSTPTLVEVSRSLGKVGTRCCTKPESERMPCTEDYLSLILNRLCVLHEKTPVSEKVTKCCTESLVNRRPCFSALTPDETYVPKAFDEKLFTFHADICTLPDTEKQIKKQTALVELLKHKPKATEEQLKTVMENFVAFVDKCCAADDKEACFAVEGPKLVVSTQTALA

B2: Fv型抗LOX−1抗体−ApoB断片融合タンパク質 Fv−B1 (other)
chain: EVKLLESGGGLVQPGGSLKLSCAVSGFDFSRYWMSWVRQAPGKGLEWIGEINPDSSTINFTPSLKDKFIVSRDNAKNTLYLQMSKVRSEDTALYYCARNDVLLGAMDYWGQGTSVTVSSGGGGSGGGGSGGGGSDVLMTQTPLSLPVSLGDQASISCRSSQTIVHSNGKTYLEWYLQKPGQSPKLLIYKVSNRFSGVPDRFSGSGSGTDFTLKISRVEAEDLGVYYCFQGSHVPLTFGAGTKLELKEEEMLENVSLVCPKDATRFKHLRKYTYNYEAESSSGVPGTADSRSATRINCKVELEVPQLCSFILKTSQCTLKEVYGFNPEGKALLKKTKNSEEFAAAMSRYELKLAIPEGKQVFLYPEKDEPTYILNIKRGIISALLVPPETEEAKQVLFLDTVYGNCSTHFTVKTRKGNVATEISTERDLGQCDRFKP
notes: Fusion of scFv (C-terminus) to ApoB fragment (N-terminus) through a linker; FreeStyle 293, His-tag purified; not shown: C-terminal V5 and 6xHis tag from the pEF6/V5/His vector
- binding result (BSA [1]): no binding (tested: 1.6ng/mL〜100μg/mL)

B3: Fv型抗LOX−1抗体−ApoB断片融合タンパク質 Fv−B2 (other)
chain: EVKLLESGGGLVQPGGSLKLSCAVSGFDFSRYWMSWVRQAPGKGLEWIGEINPDSSTINFTPSLKDKFIVSRDNAKNTLYLQMSKVRSEDTALYYCARNDVLLGAMDYWGQGTSVTVSSGGGGSGGGGSGGGGSDVLMTQTPLSLPVSLGDQASISCRSSQTIVHSNGKTYLEWYLQKPGQSPKLLIYKVSNRFSGVPDRFSGSGSGTDFTLKISRVEAEDLGVYYCFQGSHVPLTFGAGTKLELKREIFNMARDQRSRATLYALSHAVNNYHKTNPTGTQELLDIANYLMEQIQDDCTGDEDYTYLILRVIGNMGQTMEQLTPELKSSILKCVQSTKPSLMIQKAAIQALRKMEPKDKDQEVLLQTFLDDASPGDKRLAAYLMLMRSPSQADINKIVQILPWEQNEQVKNFVASH
notes: as for B2
- binding result (BSA [1]): no binding (tested: 1.6ng/mL〜100μg/mL)
- fold higher inflection-point concentration against Fv型抗体 [2]: ~27 倍

B4: マウス抗LOX−1モノクローナル抗体#10−1 (antibody, V domains shown)
VH: EVKLLESGGGLVQPGGSLKLSCAVSGFDFSRYWMSWVRQAPGKGLEWIGEINPDSSTINFTPSLKDKFIVSRDNAKNTLYLQMSKVRSEDTALYYCARNDVLLGAMDYWGQGTSVTVSS
VL: DVLMTQTPLSLPVSLGDQASISCRSSQTIVHSNGKTYLEWYLQKPGQSPKLLIYKVSNRFSGVPDRFSGSGSGTDFTLKISRVEAEDLGVYYCFQGSHVPLTFGAGTKLELK
notes: also called 抗LOX−1抗体#10−1; マウス抗LOX−1抗体#10−1のIgG型
- binding result (BSA [3]): no binding (tested: 抗体濃度2ng/mL〜100μg/mL)
- binding result [4]: binds

The remaining lines, values ahead:

- binding result (BSA [1]): no binding (tested: 1.6ng/mL〜100μg/mL)
- fold higher inflection-point concentration against Fv型抗体 [2]: ~7 倍
B1: Fv型抗LOX−1抗体−ApoB断片融合タンパク質 Fv−B4 (other)
chain: EVKLLESGGGLVQPGGSLKLSCAVSGFDFSRYWMSWVRQAPGKGLEWIGEINPDSSTINFTPSLKDKFIVSRDNAKNTLYLQMSKVRSEDTALYYCARNDVLLGAMDYWGQGTSVTVSSGGGGSGGGGSGGGGSDVLMTQTPLSLPVSLGDQASISCRSSQTIVHSNGKTYLEWYLQKPGQSPKLLIYKVSNRFSGVPDRFSGSGSGTDFTLKISRVEAEDLGVYYCFQGSHVPLTFGAGTKLELKGPQMSASVHLDSKKKQHLFVKEVKIDGQFRVSSFYAKGTYGLSCQRDPNTGRLNGESNLRFNSSYLQGTNQITGRYEDGTLSLTSTSDLQS
notes: as for B2

- binding result (BSA [1]): no binding (tested: 1.6ng/mL〜100μg/mL)
B5: Fv型抗LOX−1抗体−ApoB断片融合タンパク質 Fv−B3 (other)
chain: EVKLLESGGGLVQPGGSLKLSCAVSGFDFSRYWMSWVRQAPGKGLEWIGEINPDSSTINFTPSLKDKFIVSRDNAKNTLYLQMSKVRSEDTALYYCARNDVLLGAMDYWGQGTSVTVSSGGGGSGGGGSGGGGSDVLMTQTPLSLPVSLGDQASISCRSSQTIVHSNGKTYLEWYLQKPGQSPKLLIYKVSNRFSGVPDRFSGSGSGTDFTLKISRVEAEDLGVYYCFQGSHVPLTFGAGTKLELKTSGAYSNASSTDSASYYPLTGDTRLELELRPTGEIEQYSVSATYELQREDRALVDTLKFVTQAEGAKQTEATMTFKYNRQSMTLSSE
notes: as for B2

- binding result (BSA [1]): no binding (tested: 抗体濃度2ng/mL〜100μg/mL)
B6: Fv型抗LOX−1抗体 (scFv)
scFv: EVKLLESGGGLVQPGGSLKLSCAVSGFDFSRYWMSWVRQAPGKGLEWIGEINPDSSTINFTPSLKDKFIVSRDNAKNTLYLQMSKVRSEDTALYYCARNDVLLGAMDYWGQGTSVTVSSGGGGSGGGGSGGGGSDVLMTQTPLSLPVSLGDQASISCRSSQTIVHSNGKTYLEWYLQKPGQSPKLLIYKVSNRFSGVPDRFSGSGSGTDFTLKISRVEAEDLGVYYCFQGSHVPLTFGAGTKLELK
notes: VH gene was amplified with the #10-1 heavy chain secretion signal; Expressed in FreeStyle 293, purified by His tag; also called Fv型抗体; Fv; not shown: C-terminal V5 and 6xHis tag from the pEF6/V5/His vector
